B1: hu2H11R35R74-PEG4-NHAc-DM4 (antibody, human IgG1, kappa, V domains shown)
VH: QVQLVQSGAEVVKPGASVKISCKASGYTFTAYYMHWVKQSPVQSLEWIGLVNPYNGFSSYNQKFQGKASLTVDRSSSTAYMELHSLTSEDSAVYYCAREFYGYRYFDVWGQGTAVTVSS
VL: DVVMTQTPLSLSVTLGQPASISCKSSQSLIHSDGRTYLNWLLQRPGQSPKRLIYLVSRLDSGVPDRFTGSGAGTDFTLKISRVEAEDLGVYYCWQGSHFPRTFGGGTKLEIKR
modifications: may carry L-DM4 through the AcNH-PEG4 linker; sites not stated; maytansinoid L-DM4 attached through the AcNH-PEG4 linker (NHS activated ester; sites not stated); average DAR (UV) 5.9 for the whole antibody
B2: hu2H11R35R74-PEG4-NMeAc-DM4 (antibody, human IgG1, kappa, V domains shown)
VH: QVQLVQSGAEVVKPGASVKISCKASGYTFTAYYMHWVKQSPVQSLEWIGLVNPYNGFSSYNQKFQGKASLTVDRSSSTAYMELHSLTSEDSAVYYCAREFYGYRYFDVWGQGTAVTVSS
VL: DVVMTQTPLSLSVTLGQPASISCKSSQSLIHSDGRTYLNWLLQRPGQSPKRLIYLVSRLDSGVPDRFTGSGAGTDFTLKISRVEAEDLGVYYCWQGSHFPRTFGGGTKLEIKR
modifications: may carry L-DM4 through the AcNMe-PEG4 linker; sites not stated; maytansinoid L-DM4 attached through the AcNMe-PEG4 linker (NHS activated ester; sites not stated); average DAR (UV) 5.4 for the whole antibody
B3: hu2H11R35R74-PEG4-Allyl-DM4 (antibody, human IgG1, kappa, V domains shown)
VH: QVQLVQSGAEVVKPGASVKISCKASGYTFTAYYMHWVKQSPVQSLEWIGLVNPYNGFSSYNQKFQGKASLTVDRSSSTAYMELHSLTSEDSAVYYCAREFYGYRYFDVWGQGTAVTVSS
VL: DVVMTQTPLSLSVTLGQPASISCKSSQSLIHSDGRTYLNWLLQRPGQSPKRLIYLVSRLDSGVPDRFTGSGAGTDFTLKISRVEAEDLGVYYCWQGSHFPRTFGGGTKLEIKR
modifications: may carry L-DM4 through the Allyl-PEG4 linker; sites not stated; maytansinoid L-DM4 attached through the Allyl-PEG4 linker (NHS activated ester; sites not stated); average DAR (UV) 5.3 for the whole antibody
B4: hu2H11R35R74-PEG8-NHAc-DM4 (antibody, human IgG1, kappa, V domains shown)
VH: QVQLVQSGAEVVKPGASVKISCKASGYTFTAYYMHWVKQSPVQSLEWIGLVNPYNGFSSYNQKFQGKASLTVDRSSSTAYMELHSLTSEDSAVYYCAREFYGYRYFDVWGQGTAVTVSS
VL: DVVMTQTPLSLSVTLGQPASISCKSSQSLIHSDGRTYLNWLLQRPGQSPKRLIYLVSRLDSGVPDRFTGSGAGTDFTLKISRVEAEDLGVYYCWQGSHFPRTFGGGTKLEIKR
modifications: may carry L-DM4 through the AcNH-PEG8 linker; sites not stated; maytansinoid L-DM4 attached through the AcNH-PEG8 linker (NHS activated ester; sites not stated); average DAR (UV) 4.9 for the whole antibody

Biological target: EphA2 receptor (UniProt P29317 24-976, limits assumed)
Test: cell-based or functional assay

EphA2 receptor, sequence (P29317 24-976 limits assumed): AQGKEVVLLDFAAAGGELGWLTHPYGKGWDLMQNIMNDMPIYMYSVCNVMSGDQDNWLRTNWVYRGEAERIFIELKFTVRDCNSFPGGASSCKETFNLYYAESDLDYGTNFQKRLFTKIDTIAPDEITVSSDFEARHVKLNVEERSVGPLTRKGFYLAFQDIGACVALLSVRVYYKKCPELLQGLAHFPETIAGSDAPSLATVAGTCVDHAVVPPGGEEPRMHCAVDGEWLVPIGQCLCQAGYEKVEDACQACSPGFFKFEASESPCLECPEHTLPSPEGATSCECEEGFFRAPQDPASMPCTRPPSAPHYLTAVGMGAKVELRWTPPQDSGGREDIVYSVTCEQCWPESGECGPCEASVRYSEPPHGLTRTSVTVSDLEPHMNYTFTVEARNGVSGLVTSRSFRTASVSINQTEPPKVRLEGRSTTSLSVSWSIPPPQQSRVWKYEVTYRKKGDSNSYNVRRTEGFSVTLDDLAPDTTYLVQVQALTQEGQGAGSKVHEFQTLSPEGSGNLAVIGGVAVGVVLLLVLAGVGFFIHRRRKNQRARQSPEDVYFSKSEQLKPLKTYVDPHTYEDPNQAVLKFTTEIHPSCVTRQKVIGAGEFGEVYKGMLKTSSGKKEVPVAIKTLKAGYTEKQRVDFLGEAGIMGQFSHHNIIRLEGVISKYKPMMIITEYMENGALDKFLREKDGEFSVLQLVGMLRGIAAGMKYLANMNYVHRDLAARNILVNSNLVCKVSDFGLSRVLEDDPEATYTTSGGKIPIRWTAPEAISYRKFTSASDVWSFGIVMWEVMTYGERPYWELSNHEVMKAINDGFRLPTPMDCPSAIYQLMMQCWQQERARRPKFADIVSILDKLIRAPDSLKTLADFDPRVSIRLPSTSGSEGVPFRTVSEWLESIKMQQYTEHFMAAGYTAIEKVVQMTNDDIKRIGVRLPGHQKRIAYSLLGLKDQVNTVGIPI

Row | Binder | IC50 [pM], +naked hu2H11R35R74 (1 uM); inhibition of growth of MDA-MB231 cells (14C-thymidine uptake) [pM] | IC50 [pM], conjugate alone; inhibition of growth of MDA-MB231 cells (14C-thymidine uptake) [pM] | ratio (IC50 +naked hu2H11R35R74 / conjugate alone)
1 | B1 | 29700 | 147 | 202
2 | B2 | 36400 | 217 | 168
3 | B3 | 7820 | 161 | 49
4 | B4 | 25000 | 400 | 62

From patent US20120276124A1 (Sanofi, published 2012)
